Test results published in patent US20040167074A1, “Therapeutic applications of mFLINT polypeptides” (priority 1998, published 2004).
Where “and” joins values, the source holds several entries; their conditions need not be identical. Equal values may be shown once. One block for each molecule: values may come before it.

How the values were obtained:
Jurkat cells [1] = assay: anti-CD3 induced Jurkat apoptosis (Annexin V/PI, FACS); type: cell-based; details: Example 12; Jurkat + antiCD3 + 10 μM DEVD-cmk
Procedure: Non-tissue treated 24 well plates (Decton Dickinson, Mansfield, Mass.) were coated with 0.5 ml of 1 ug/ml anti-CD3 (Farmingen) in PBS for 90 min at 37° C. The plate was washed once with PBS.
Cells were incubated overnight at 37° C. incubator and cells were then stained by Annexin V and PI staining. Apotosis was analyzed by flow cytometer (FACS). Cell apoptosis was indicated by positive staining with Annexin V.

[2] = molecular target: FasL expressed by anti-CD3-activated Jurkat cells
[3] = molecular target: FasL expressed by anti-CD3-activated Jurkat cells; remark: listed apart in the source
[4] = molecular target: soluble Fas L (recombinant FasL)
LIGHT = LIGHT cell surface binding assay by flow cytometry
Procedure: To confirm the dot blot binding between LIGHT and mFLINT, 293 cells were transiently transfected with LIGHT expression construct overnight. On the next day, cells were detached and incubated with mFLINT-Flag on ice. […] As a control we used vector transfected cells. To make sure that the binding was specific, a competition assay with 10 fold access of untagged mFLINT was performed.
More particularly, 6 well dishes of cells were transfected as above. Both vector and m-LIGHT expressing cells were provided. Cells were detached from the plates by vigorous pipetting with a P100 Pipettor. Then, in PBS/BSA, 0.1%, cells were exposed to one of the following combinations, set forth in a-d.
a. GST/flag, mFLINT/flag, or HVEM at 20 nM;
b. FLINT/flag at 20 nM+GST/flag or mFLINT or HVEM at 200 nM;
c. FLINT/flag at 20 nM+HVEM+anti-human FAS ligand at 200 n-M;
d. anti-human FAS ligand-biotin at 1 μg/ml
Cells were incubated on ice for 30 minutes and washed with PBS/BSA, 0.1%. Cells then were exposed either to anti-human IgG-biotin, 1 μg/ml (for detection of HVEM), or to M2-biotin, 2 μg/ml (for detection of flag conjugates). Cells were incubated on ice for 30 minutes and washed with PBS/BSA, 0.1%. Thereafter, cells were exposed to streptavidin Alexa 488 (SIGMA) at a 1:1000 dilution. Again, cells were incubated on ice for 30 minutes and washed with PBS/BSA, 0.1 1%. Cells were analyzed using a FACSORT flow cytometer (Decton Dickinson) to determine binding.

FasL = molecular target: T1, FasL (Homo sapiens, UniProt P48023); assay: BiaCore real-time biomolecular interaction analysis (surface plasmon resonance); type: binding; details: immobilized FasL (monomer bound), analyte in solution
T1 construct: purchased Kamiya Biomedical Company
T1 sequence (P48023 130-281 limits assumed): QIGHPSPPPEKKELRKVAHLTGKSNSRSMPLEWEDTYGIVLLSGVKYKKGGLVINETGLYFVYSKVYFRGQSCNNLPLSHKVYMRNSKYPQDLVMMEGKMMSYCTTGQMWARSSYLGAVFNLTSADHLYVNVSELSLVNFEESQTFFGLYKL
Description: FLINT-Fas L binding may be confirmed and specifics of binding determined (e.g., kinetics, specificity, affinity, cooperativity, relative binding pattern, concentration) using real-time biomolecular interaction analysis. This technology confers the ability to study biomolecular interactions in real time, without labeling any of the interactants. In particular, it takes advantage of the optical phenomenon surface plasmon resonance, and detection depends on changes in the mass concentration of macromolecules at the biospecific interface. Interactions are followed in real time, so that kinetic information is readily derived. In many cases, investigations can be performed without prior purification of components.
Measurements are accomplished using a BiaCore 2000 instrument. The instrument, accompanying chips, immobilization and maintenance kits and buffers are obtained from Biacore AB, Rapsgatan 7, S-754 50 Uppsala, Sweden. FasL is obtained from Kamiya Biomedical Company, 910 Industry Drive, Seattle, Wash. 98188, Guanidine Isothiocyanate Solution from GibcoBRL, and mFLINT is prepared as in Examples 8 and 9.
Experiments using immobilized FasL loaded with a solution containing mFLINT. […] This is explained by the fact that FasL is a trimer, yet here FasL monomer was bound. Further experiments utilized bound FLINT with FasL in solution, allowing for trimer formation. […] This observations indicate that FLINT should effectively compete with Fas for FasL binding, which likely explains the therapeutic benefit observed in experiments detailed below.

hFasLigand (Flag-tagged) = molecular target: T2, hFasLigand (Flag-tagged) (Homo sapiens, UniProt P48023); assay: ELISA: FasLigand binding to adsorbed FLINT and Fas; details: 100 ng receptor adsorbed
T2 sequence (P48023 103-281 limits assumed): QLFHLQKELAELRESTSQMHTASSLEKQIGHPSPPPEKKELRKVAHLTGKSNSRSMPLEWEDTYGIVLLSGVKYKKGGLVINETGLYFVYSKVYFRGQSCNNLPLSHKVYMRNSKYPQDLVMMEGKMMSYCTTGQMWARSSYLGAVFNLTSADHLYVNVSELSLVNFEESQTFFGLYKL
Procedure: FLINT and Fas (100 ng of each) were adsorbed on to an ELISA plate. hFasLigand (Flag-tagged) was added at different concentrations to a maximum concentration of 300 ng down to 0.1 ng on TBST plus a 0.1% solution containing 1 microgram/ml of M2 Abs. After washing of the plate, anti-mouse-Abs-HRP (1:3000 dilution, Bio-Rad) was added to the wells. After washings, visualization enzymatic reaction using ABTS as a substrate was performed.

[5] = tested on: Mouse T cell hybridoma cells (LTT cells); assay: Murine FasL-mediated apoptosis of LTT cells (MTS cytotoxicity assay); type: cell-based; details: test agent 1 μg/ml
Procedure: (§1) LTT,2,14,11 cells (LTT cells), see Glasebrook, Eur.J.Immunol. 17: 1561-65 (1987), were used in this Annexin V assay. On the first day, a 96 well plate was coated with anti-CD3 (2C11) at a serial dilutions. On the second day, 100,000 LTT cells were added, in 50 μl of medium per well, along with 50 μl of medium to the control wells and 50 μl of medium containing:
The same steps as in Example 16 were followed on Day 1 and Day 2. On Day 3 20 ul of MTS solution (Promega) was added to the cells which were then incubated at 37° C. for 2 hours. Using a plate reader, the absorbances at 490 nm wavelength were collected.

[6] = tested on: Mouse T cell hybridoma cells (LTT cells); assay: Murine FasL-mediated apoptosis of LTT cells (Annexin V assay); type: cell-based; details: test agent 1 μg/ml
Procedure: as §1
Group 1. solubleFas (sFas)(FasFc, mouse), with a final concentration of 1 μg/ml
Group 2. mFLINT (human), with a final concentration of 1 ug/ml
Group 3. anti-FasL (mouse), with a final concentration of 1 ug/ml.
These then were incubated overnight, at 37° C., in 5% CO2;
On the following day (Day 3), the cells were collected from each well, washed and labeled with Annexin V and PI, following Flow cytometry analysis.

Jurkat cells [7] = assay: Recombinant FasL induced Jurkat cell apoptosis (Annexin V/PI, FACS); type: cell-based; details: Jurkat + inducer alone 200 ng/ml, overnight
Procedure: One milliliter of 1×10^6 cell/ml was added into each well of 24 well tissue culture plate and treated with following reagents: soluble Fas L (200 ng), Fas L plus 1 ug mFLINT, Fas L plus 1 ug OPG2-Fc, Trail (200 ng), Trail plus 1 ug mFLINT. Cells were incubated overnight at 37° C. and then stained with Annexin V and PI.

Molecule: DEVD-cmk [DEVDcmk, reference compound]
Cell apoptosis (positive staining with Annexin V) (Jurkat cells [1]): 30.80

apoptosis of Jurkat cells, positive staining with Annexin V (FACS) [2]: 45.8 | apoptosis of Jurkat cells [3]: 26.2 | apoptosis of Jurkat cells, Annexin V and PI (FACS) [4]: 70.6
Molecule: OPG2-Fc (Fc fusion)

B1: mFLINT-Flag: FLINT with the Flag sequence attached at the C-terminal end: [FLINT]-DYKDDDDK (protein)
chain: VAETPTYPWRDAETGERLVCAQCPPGTFVQRPCRRDSPTTCGPCPPRHYTQFWNYLERCRYCNVLCGEREEEARACHATHNRACRCRTGFFAHAGFCLEHASCPPGAGVIAPGTPSQNTQCQPCPPGTFSASSSSSEQCQPHRNCTALGLALNVPGSSSHDTLCTSCTGFPLSTRVPGAEECERAVIDFVAFQDISIKRLQRLLQALEAPEGWGPTPRAGRAALQLKLRRRLTELLGAQDGALLVRLLQALRVARMPGLERSVRERFLPVHDYKDDDDK
cell surface binding (flow cytometry peak shift) (LIGHT; LIGHT-transfected 293 cells): peaks shifted only when LIGHT expressing cells were stained with mFLINT-Flag | cell surface binding (flow cytometry peak shift) (LIGHT; vector transfected control cells): no shift in the control cells

Kd (FasL): 0.162 µM | OD, 405 nM (hFasLigand (Flag-tagged); FasL 0.1 ng): 0 | OD, 405 nM (hFasLigand (Flag-tagged); FasL 0.5 ng): 0 | OD, 405 nM (hFasLigand (Flag-tagged); FasL 1.0 ng): 0 | OD, 405 nM (hFasLigand (Flag-tagged); FasL 5.0 ng): .01 | OD, 405 nM (hFasLigand (Flag-tagged); FasL 10 ng): .03 | OD, 405 nM (hFasLigand (Flag-tagged); FasL 50 ng): .045 | OD, 405 nM (hFasLigand (Flag-tagged); FasL 100 ng): .18
B2: Fas: Fas receptor protein adsorbed on ELISA plate or compared in BiaCore (protein, UniProt P25446 22-169, looked up)
extracellular domain: QGTNSISESLKLRRRVRETDKNCSEGLYQGGPFCCQPCQPGKKKVEDCKMNGGTPTCAPCTEGKEYMDKNHYADKCRRCTLCDEEHGLEVETNCTLTQNTKCKCKPDFYCDSPGCEHCVRCASCEHGTLEPCTATSNTNCRKQSPRNR
modifications: extracellular domain
notes: Fas receptor protein adsorbed on ELISA plate or compared in BiaCore

B3: SFas: solubleFas (sFas)(FasFc, mouse) (protein)
chain: B2 extracellular domain
MTS absorbance at 490 nm ([5]; Anti CD3 conc. 0 μg/ml): 1.774 | MTS absorbance at 490 nm ([5]; Anti CD3 conc. 0.0014 μg/ml): 1.968 | MTS absorbance at 490 nm ([5]; Anti CD3 conc. 0.004 μg/ml): 1.929 | MTS absorbance at 490 nm ([5]; Anti CD3 conc. 0.012 μg/ml): 1.779 | MTS absorbance at 490 nm ([5]; Anti CD3 conc. 0.037 μg/ml): 1.777 | MTS absorbance at 490 nm ([5]; Anti CD3 conc. 0.11 μg/ml): 1.638 | MTS absorbance at 490 nm ([5]; Anti CD3 conc. 0.33 μg/ml): 1.624 | MTS absorbance at 490 nm ([5]; Anti CD3 conc. 1 μg/ml): 1.459 | % Annexin V Positive ([6]; Anti CD3 0): 23.14% | % Annexin V Positive ([6]; Anti CD3 0.11): 41.08% | % Annexin V Positive ([6]; Anti CD3 0.33): 47.28% | % Annexin V Positive ([6]; Anti CD3 1): 56.66%

B4: TRAIL: TNF ligand TRAIL (RnD Systems) (protein, UniProt P50591 1-281, looked up)
Tumor necrosis factor ligand …: MAMMEVQGGPSLGQTCVLIVIFTVLLQSLCVAVTYVYFTNELKQMQDKYSKSGIACFLKEDDSYWDPNDEESMNSPCWQVKWQLRQLVRKMILRTSEETISTVQEKQQNISPLVRERGPQRVAAHITGTRGRSNTLSSPNSKNEKALGRKINSWESSRSGHSFLSNLHLRNGELVIHEKGFYYIYSQTYFRFQEEIKENTKNDKQMVQYIYKYTSYPDPILLMKSARNSCWSKDAEYGLYSIYQGGIFELKENDRIFVSVTNEHLIDMDHEASFFGAFLVG
Cell apoptosis (Annexin V and PI, FACS) (Jurkat cells [7]): 17.47 and 17.43
